# Test: yeast display, Sf9 membrane polyspecificity reagent, FACS + sequencing; frameworks hold sequencing errors
# In short: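 Galactose-induced (36–48 hours) yeast carrying a synthetic nanobody display library were exposed to 10% biotinylated, detergent-solubilized Sf9 membrane reagent at 4 °C for 1 hour. FACS followed streptavidin microbead enrichment, using low and high (top ~1%) gates for expression (anti-HA) and reagent binding (streptavidin). Colony PCR, MiSeq 2 × 250 sequencing and CDR-length filtering followed. Labels for polyreactivity reflect the gate of origin.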
row,Sequence,polyreactivity (PSR sort gate)
1,QVQLVESGGGLVQAGGSLRLSCAASGRTFSYYAMGWYRPAPGKERELVARITYRGGRTYYADSVKGRFTISRDNAKNTVYLQMNSLKPEDTAVYYCATTSWRYGYDYWGQGTQVTVSS,high polyreactivity
2,QVQLVESGGGLVQAGGSLRLSCAASGRTFSYYAMGWYRQAAGKERELVAAISRAGRTNYADSVKGRFTISRDNAKNTVYLQMNSLKPEDTAVYYCAATGWLRIDRPYTYTYCYWGQGTQVTVSS,high polyreactivity
3,QVQLVESGGGLVQAGGSLRLSCAASGRTFSYYAMGWYRQAPGKERELVAAIRRSSGTTYYADSVKGRFTISSDNAKNTVYLQMNSLKPEDTAVYYCNARSRRASIKRDYWGQGTQVTVSS,high polyreactivity
4,QVQLVESGGGLVQAGGSLRLSCAASGRTFSYYAMGWYRQAPGKERELVAAISSGGSTNYADSVKGRFTISRDNAKNTVYLQMNSLKPEDPAFYYCANSSIWGSGRVRWVTYYFWGQGTQVTVSS,low polyreactivity
5,QVQLVESGGGLVQAGGSLRLSCAASGRTFSYYAMGWYRQAPGKERELVARITYRGGRTYYADSVKGRFTISRDHAKNTVYLQMNSLKPEDTAVYYCNADAIYKRGGRDYWGQGTQVTVSS,high polyreactivity
6,QVQLVESGGGLVQAGGSLRLSCAASGRTFSYYAMGWYRQAPGKERELVASISGGGRTNYADSVKGRFTISRDNAKITVYLQMNSVKPEDTAVYYCAASYQITRQYKRGYWGQGTQVTVSS,high polyreactivity
7,QVQLVESGGGLVQAGGSLRLSCAASGRTFSYYARGWYRQAPGKERELVAAISSGGSTNYADSVKGRFTISRDNAKNTVYFQMNSLKPEDTAVYYCAALWSGYKFNYWGQGTQVTVSS,low polyreactivity
8,QVQLVESGGGLVQAGGSLRLSCAASGRTFTEYAMGWYRQAPGKEREFVARIRWSDGSTYYADSVKGRFTISRDNAKNTVYLQMNSLLPEDTAVYYCAARYIETPVTVLSLMDYWGQGTQVTVSS,low polyreactivity
9,QVQLVESGGGLVQAGGSLRLSCAASGRTFTFYAMGWYRQAPGKERELVAAIRRGGSTIYADSVKGRFTISRDNAKNTVYLQMNSLKPEDTAVYYCNKRVWYPYWTLDYWGQGTQVTVSS,low polyreactivity
10,QVQLVESGGGLVQAGGSLRLSCAASGRTFTFYAMGWYRQAPGKERELVAAITWSGGSTYYADSVKGRFTISRDNAKNTVYLQRNSLKPEDTAVYYCAKLDVISDDLDYWGQGTQVTVSS,low polyreactivity
11,QVQLVESGGGLVQAGGSLRLSCAASGRTFTHYAMGWYRQAPGKERELVAAITASGGSTYYADSVKGRFTISRDNAQNTVYLQMNSLKPEDTAVYYCATEANQRTLNDTVKDYDYWGQGTQVTVSS,low polyreactivity
12,QVQLVESGGGLVQAGGSLRLSCAASGRTFTINTMGWYRQAPGKERELVAAITVSGGSTYYADSVKGRFTISRDNAKNTVYLQMNSLKPEDTAVYYCAAQRSYVNLGQTHDYWGQGTQVNVSS,low polyreactivity
13,QVQLVESGGGLVQAGGSLRLSCAASGRTFTKNAMGWYRQAPGKEREFVAAISKSTGSTYYADSVKGRFTISRDNAKNTVYLQMNSLKPEDTAVYYCNARYRFFIQARWGYIFGYWGQGTQVTVSS,high polyreactivity
14,QVQLVESGGGLVQAGGSLRLSCAASGRTFTKYAMGWYRQAPGKERELVAAISRSGGSTYYADSVKGRFTISRDNAKNTVYLQMNSLKPEDTAVYYCAARGQYRYSFGDYSWGQGTQVTVSS,high polyreactivity
15,QVQLVESGGGLVQAGGSLRLSCAASGRTFTLYAMGWYRQAPGKERELVASITSGTRTYYADSVKGRFTISRDNAKNTVYLQMNSLKPEDTAVYYCAKEGYLRTLHRLYDYWGQGTQVTVSS,low polyreactivity
16,QVQLVESGGGLVQAGGSLRLSCAASGRTFTPYAMGWYRQAPGKERELVAAIDTSGGSTYADSVKGRFTISRDNAKNTVYLQMNSLKPEDTAVYYCAATRHSRVRGGDYWGQGTQVTVSS,low polyreactivity
17,QVQLVESGGGLVQAGGSLRLSCAASGRTFTPYAMGWYRQAPGKERELVAAISIGGPTNYADSVKGRFTISRDNAKNTVYLQMNSLKPEDTADYYCAADSYYLGRDGFGFYAYTYDYWGQGTEVTVSS,low polyreactivity
18,QVQLVESGGGLVQAGGSLRLSCAASGRTFTRNAMGWYRQAPGKDRELVAAISYSGGSTYYADSVKGRFTISRDNAKNTVYLQMNSLKPEDTAVYYCNAATSRRSIRYDYWGQGTQVTVSS,high polyreactivity
19,QVQLVESGGGLVQAGGSLRLSCAASGRTFTRYAMGWYRQAPGKERELVAAISGGGGSTYYADSVKGRFTISRDNAKNTVYLQMNSLKPEDTAVYYCAAGPWFYYWGQGTQVTVSS,low polyreactivity
20,QVQLVESGGGLVQAGGSLRLSCAASGRTFTRYAMGWYRQAPGKERELVAAISRGGSTYYADSVKGRFTISRDNAKNTVYLQMNSPKPEDTAVYYCAARYGTYTAGNYWGQGTQVTVSS,high polyreactivity
21,QVQLVESGGGLVQAGGSLRLSCAASGRTFTRYAMGWYRQAPGKERELVATITRGGSTNYADSVKGRFTISRDNAKNTVYLQMNSLKPEDTAVYYCAAGYFIRTRSRYRYDYWGQCTQVTVSS,high polyreactivity
22,QVQLVESGGGLVQAGGSLRLSCAASGRTFTRYAMGWYRQPPGKESELVAAISRGGNTNYADSVKGRFTISRDNAKNTVYLQMNSLKPEDTAVYYCARVYGGYSVPSAYGSWGQGTQVTVSS,high polyreactivity

row,Sequence,polyreactivity (PSR sort gate)
1,QVQLVESGGGLVQAGGSLRLSCAASGRTFTRYAMGWYRQSPGKERELVAAISTSGDSTYYADSVKGRFTISRDNAKNTVYLQMNSLKPVDTAVYYCNTYWTSEYDYWGQGTQVTVSW,low polyreactivity
2,QVQLVESGGGLVQAGGSLRLSCAASGRTFTSNAMGWYRQAPGKERELVAAITQSGGSTYYADSVKGRFTISRDNAKNTVYLQMNSLKPEDTAVYYCNAETTGRTEYNYWGQGTQVTVSS,low polyreactivity
3,QVQLVESGGGLVQAGGSLRLSCAASGRTFTSNGMGWYRQAPGKERELVAAITSGTSTYYADSVKGRFTISRDNAKNPVYLQMNSLKPEDTAVYYCNKLVPRGSSYSTVIRGGGYWGQGTQVTVSS,high polyreactivity
4,QVQLVESGGGLVQAGGSLRLSCAASGRTFTSYAMGCYRQEPGKERELVAAITRGGRTNYADSVKGRFTISRDNAKNTVYLQMNSLKPEDTAVYYCNTEIRLSKYDYWGQGTQVTVSS,low polyreactivity
5,QVQLVESGGGLVQAGGSLRLSCAASGRTFTTYTMGWYRQAPGKERELVASINYRGGRTYYADSVKGRFTISRDNAKNTVYLQMNSLKPEDTAVYYCAYYPYGYDYWGQGTQVTVSS,high polyreactivity
6,QVQLVESGGGLVQAGGSLRLSCAASGRTFTVYPMGWYRQAPVKEREFVAAITERGGSTYYADSVKGRFTISRDNAKNTVYLQMNSLKPEDTAVYYCAAVYYWRPGWYVRFDYWGQGTQVTVSS,low polyreactivity
7,QVQLVESGGGLVQAGGSLRLSCAASGRTFTWNVMGWYIQAPGKERELVAAISSSGGDTYYADSVKGRFTISRDNAKNTVYLHMNSLKPEDTAVYYCAAGQVYSGYEYWGQGTQVTVSS,low polyreactivity
8,QVQLVESGGGLVQAGGSLRLSCAASGRTFTWNVMGWYRQAPGKERELVAAITTDDRTYADSEKGRFTISRDNAKNTVYLQMNSLKQEDTAVYYCATVVAWTSRPVGEDYWGQGTQVTVSS,low polyreactivity
9,QVQLVESGGGLVQAGGSLRLSCAASGRTFTYNAMGWYRQAPGKERELVAAITYRGGSTYYADSVKGRFTISRDNAKNTVYLQMNSLKPEDTAVYYCAARVSYYRYNTPHYYYWGQGTQVTVSS,high polyreactivity
10,QVQLVESGGGLVQAGGSLRLSCAASGRTFTYYAMGWYRQAPGKERELVAAISWSGDDTYYADSVKGRFTISRDNAKNTVYLQMHSLKPEDTAVYYCAAEGGGVYSDYRENTGEDYWGQGTQVTVSS,low polyreactivity
11,QVQLVESGGGLVQAGGSLRLSCAASGRTFVAKTMGWYRQAPGKERELVAAISSSGGSTYYADSVKGRFTISRDNAKNTVYLQMNSLKPEDTAVYYCAKTHSGWWRYGYWGQGTQVTVSS,high polyreactivity
12,QVQLVESGGGLVQAGGSLRLSCAASGRTFVANAMGWYRQAPGKERELVAAITSTGSTYYADSVKGRFTISRDNAKNTVYLQMNSLKPEDTAVYYCATYYWLGLSLYDYWGQGSQVTVSS,low polyreactivity
13,QVQLVESGGGLVQAGGSLRLSCAASGRTFVDYDMGWYRQAPGKERELVADINSGGSTYYADSVKGRFTISRDNAKNTVYLQMNRLKPEDTAVYYCAADDGWGYISSYDYEYWGQGTQVTVSS,high polyreactivity
14,QVQLVESGGGLVQAGGSLRLSCAASGRTFVGNTMGWYRQAPGKERELVAAISTGDGSTTYADSVKGRFTISRDNAKNTVYLQMNSLKPEDTAVYYCNVKYRASYRTDFEYWGLGTQVTVSS,low polyreactivity
15,QVQLVESGGGLVQAGGSLRLSCAASGRTFVGYTMGWYRQAPGKERELVAAIDLSDGSTSYADSVKGRFTISRDNAKNSVYLQMNSLKPEDTAVYYCAKTWANVYAGAHDYWGQGTQVTVSS,low polyreactivity
16,QVQLVESGGGLVQAGGSLRLSCAASGRTFVGYTMGWYRQAPGKERELVAAIDLSDGSTSYADSVKGRFTISRDNAKNTVYLQMNSLKPEDTAVYYCAKSWANVYAGAHDYWGQGTQVTVSS,low polyreactivity
17,QVQLVESGGGLVQAGGSLRLSCAASGRTFVNNAMGWYRQAPGKERELVAAITRSGGRTYYADSVKGRFTISRDNAKNTVYLQMNSLKPVDTAVYYCATANVRLRHDDYWGQGTQVTVSS,high polyreactivity
18,QVQLVESGGGLVQAGGSLRLSCAASGRTFVNYALGWYRQAPWKERELVAGISSDGSTYYADSEKGRFTISRDNAKNTVYLQMNSLKPEDTAVYYCATEIRITGLYRYDYWGQGTQVTVSS,low polyreactivity
19,QVQLVESGGGLVQAGGSLRLSCAASGRTFVPYAMGWYRQAPGKEREFVAVITWGGGSTYYADSVKGRFTISRDNAKNTVYLQMNSLKPEDTAVYYCAARNRRATGLGSRYGYWGQGTQVTVSS,high polyreactivity
20,QVQLVESGGGLVQAGGSLRLSCAASGRTFVPYAMGWYRQAPGKERELVATNNRSGGTTYYADSVKGRFTISRDNAKNTVYLQMNSLKPEDTAVYYCNKSPYYTVWSTRGNQFSRFYYWGQGTQVTVSS,high polyreactivity
21,QVQLVESGGGLVQAGGSLRLSCAASGRTFVPYAMGWYRQAPGKEREMVAAISQSGGRTYYTDSVKGRFTISRDNAKNTVYLLMNSLKPEDTAVYYCAARGPYRPPHGDAYYTYVYWGQGTQVTVSS,high polyreactivity

# Reference: the nanobody polyreactivity screen of Harvey et al. (2022)
